Data on one substance can be found in publication PMC12862363, “AURKB-driven dissolution of CIZ1–RNA assemblies from the inactive X chromosome in mitosis” (Nucleic Acids Research, 2026).

One data set concerns C179DDD (Homo sapiens). The experiment in a line: EMSA. The settings on record: 0.66 nM RNA; yeast tRNA 0.1 mg/ml; 10 mM Tris-HCl pH 7, 30 mM NaCl, 2.5 mM MgCl2, 0.1% IGEPAL CA-630, 0.1 mg/ml yeast tRNA, 1.5% RNaseOUT, 0.2 mM EDTA, 0.2 mM DTT, 30 C 20 min; 0.8% agarose/TBE …. In general terms: Mobility shift assays separate free from complexed probe on a gel.
For a further data set, the system named is C179Δtail (Homo sapiens). Kind of data set: EMSA. Particulars: 0.66 nM RNA; yeast tRNA 0.1 mg/ml; 10 mM Tris-HCl pH 7, 30 mM NaCl, 2.5 mM MgCl2, 0.1% IGEPAL CA-630, 0.1 mg/ml yeast tRNA, 1.5% RNaseOUT, 0.2 mM EDTA, 0.2 mM DTT, 30 C 20 min; 0.8% agarose/TBE ….

For Xist repeat E RNA probe, the binding signal (% probe shifted at 5 µM protein) in the data set with C179DDD (Homo sapiens) is 54; in the data set on C179Δtail (Homo sapiens) it was 2.
